Data from patent publication US20230157952A1, “METHOD FOR IMPROVING THE STABILITY OF A PHARMACEUTICAL COMPOSITION COMPRISING A HIGH PENETRATION DRUG, AND THE PHARMACEUTICAL COMPOSITION OBTAINED THEREFROM” (Techfields Inc., priority 2020, published 2023).
Non-standard residues stand in square brackets, D forms with d. Arg(NO2) = N=C(NCCC[C@H](N)C(=O)O)N[N+](=O)[O-]

Test: Effect of concentration on the stability of the solution (purity over time)
Settings: for Purity (%) at Day 3 / Purity (%) at Day 7 / Purity (%) at hr 0 / Purity (%) at hr 24 / Purity(%) at Day 14 / Purity(%) at Day 21 / Purity(%) at Day 28: 25° C.; for Purity at Day 30 / Purity at Day 90 / Purity at Day 180 / Purity at day 0: 1 equivalent sodium acetate in 50% ethanol at 25° C.

Which “Stability of common ester over the concentrations tested” value (0.01% to 10% (or higher) in 50% ethanol at 25° C.) does the source give for CC(C)(C)OC(=O)C(N)Cc1ccccc1 (stereo not shown) [t-Butyl 2-amino-3-phenylpropanoate, reference compound] here?
Its value is “not stable”.

And the “Purity (%) at Day 3” value (0.01 wt % in 50% ethanol)?
The value was 92.1%.

And the “Purity (%) at Day 7” value (0.01 wt % in 50% ethanol)?
Its value is 89.4%.

And the “Purity (%) at hr 0” value (0.01 wt % in 50% ethanol)?
The value was 98.0%.

And the “Purity (%) at hr 24” value (0.01 wt % in 50% ethanol)?
Its value is 96.1%.

And the “Purity(%) at Day 14” value (0.01 wt % in 50% ethanol)?
Its value is 83.0%.

What about the “Purity(%) at Day 21” value (0.01 wt % in 50% ethanol) of the same compound?
The value was 60.2%.

And the “Purity(%) at Day 28” value (0.01 wt % in 50% ethanol)?
The value was 35.2%.

And the “Purity (%) at Day 3” value (0.1 wt % in 50% ethanol)?
Its value is 93.1%.

What about the “Purity (%) at Day 7” value (0.1 wt % in 50% ethanol) of the same compound?
Its value is 91.4%.

What about the “Purity (%) at hr 0” value (0.1 wt % in 50% ethanol) of the same compound?
Its value is 98.0%.

And the “Purity (%) at hr 24” value (0.1 wt % in 50% ethanol)?
Its value is 96.4%.

And the “Purity(%) at Day 14” value (0.1 wt % in 50% ethanol)?
Its value is 86.1%.

What about the “Purity(%) at Day 21” value (0.1 wt % in 50% ethanol) of the same compound?
The value was 64.1%.

And the “Purity(%) at Day 28” value (0.1 wt % in 50% ethanol)?
Its value is 41.0%.

And the “Purity (%) at Day 3” value (1 wt % in 50% ethanol)?
The value was 93.9%.

What about the “Purity (%) at Day 7” value (1 wt % in 50% ethanol) of the same compound?
The value was 92.2%.

And the “Purity (%) at hr 0” value (1 wt % in 50% ethanol)?
Its value is 98.1%.

And the “Purity (%) at hr 24” value (1 wt % in 50% ethanol)?
The value was 96.7%.

And the “Purity(%) at Day 14” value (1 wt % in 50% ethanol)?
The value was 88.9%.

What about the “Purity(%) at Day 21” value (1 wt % in 50% ethanol) of the same compound?
The value was 70.9%.

And the “Purity(%) at Day 28” value (1 wt % in 50% ethanol)?
The value was 48.9%.

What about the “Purity (%) at Day 3” value (3 wt % in 50% ethanol) of the same compound?
The value was 94.6%.

And the “Purity (%) at Day 7” value (3 wt % in 50% ethanol)?
Its value is 92.4%.

What about the “Purity (%) at hr 0” value (3 wt % in 50% ethanol) of the same compound?
Its value is 98.2%.

What about the “Purity (%) at hr 24” value (3 wt % in 50% ethanol) of the same compound?
Its value is 96.9%.

And the “Purity(%) at Day 14” value (3 wt % in 50% ethanol)?
Its value is 89.5%.

What about the “Purity(%) at Day 21” value (3 wt % in 50% ethanol) of the same compound?
The value was 72.4%.

What about the “Purity(%) at Day 28” value (3 wt % in 50% ethanol) of the same compound?
Its value is 50.4%.

And the “Purity (%) at Day 3” value (5 wt % in 50% ethanol)?
Its value is 94.8%.

What about the “Purity (%) at Day 7” value (5 wt % in 50% ethanol) of the same compound?
The value was 93.1%.

What about the “Purity (%) at hr 0” value (5 wt % in 50% ethanol) of the same compound?
Its value is 98.1%.

And the “Purity (%) at hr 24” value (5 wt % in 50% ethanol)?
Its value is 97.0%.

What about the “Purity(%) at Day 14” value (5 wt % in 50% ethanol) of the same compound?
Its value is 90.0%.

And the “Purity(%) at Day 21” value (5 wt % in 50% ethanol)?
The value was 73.0%.

What about the “Purity(%) at Day 28” value (5 wt % in 50% ethanol) of the same compound?
The value was 56.9%.

And the “Purity (%) at Day 3” value (10 wt % in 50% ethanol)?
Its value is 95.9%.

And the “Purity (%) at Day 7” value (10 wt % in 50% ethanol)?
The value was 93.9%.

What about the “Purity (%) at hr 0” value (10 wt % in 50% ethanol) of the same compound?
The value was 98.2%.

And the “Purity (%) at hr 24” value (10 wt % in 50% ethanol)?
Its value is 97.6%.

And the “Purity(%) at Day 14” value (10 wt % in 50% ethanol)?
The value was 91.0%.

What about the “Purity(%) at Day 21” value (10 wt % in 50% ethanol) of the same compound?
Its value is 74.9%.

What about the “Purity(%) at Day 28” value (10 wt % in 50% ethanol) of the same compound?
Its value is 59.2%.

Which results are given for “H-Val-Pro-Gly-Pro-Arg(NO2)—OCH2CH3•HCl (H-VPGP[Arg(NO2)]-OEt; also: HCl salt)”?
Purity at Day 30 (0.01 wt %): 55.5%; Purity at Day 90 (0.01 wt %): 22.2%; Purity at Day 180 (0.01 wt %): 0%; Purity at day 0 (0.01 wt %): 98.1%; Purity at Day 30 (0.1 wt %): 65.7%; Purity at Day 90 (0.1 wt %): 31.3%; Purity at Day 180 (0.1 wt %): 9.6%; Purity at day 0 (0.1 wt %): 98.2%; Purity at Day 30 (1 wt %): 91.1%; Purity at Day 90 (1 wt %): 77.3%; Purity at Day 180 (1 wt %): 58.6%; Purity at day 0 (1 wt %): 98.5%; Purity at Day 30 (3 wt %): 96.8%; Purity at Day 90 (3 wt %): 93.2%; Purity at Day 180 (3 wt %): 87.8%; Purity at day 0 (3 wt %): 98.6%; Purity at Day 30 (5 wt %): 97.3%; Purity at Day 90 (5 wt %): 94.9%; Purity at Day 180 (5 wt %): 90.5%; Purity at day 0 (5 wt %): 98.7%; Purity at Day 30 (7 wt %): 97.6%; Purity at Day 90 (7 wt %): 95.2%; Purity at Day 180 (7 wt %): 91.7%; Purity at day 0 (7 wt %): 98.7%; Purity at Day 30 (8 wt %): 97.7%; Purity at Day 90 (8 wt %): 95.2%; Purity at Day 180 (8 wt %): 91.6%; Purity at day 0 (8 wt %): 98.6%; Purity at Day 30 (10 wt %): 97.5%; Purity at Day 90 (10 wt %): 95.3%; Purity at Day 180 (10 wt %): 91.7%; Purity at day 0 (10 wt %): 98.6%; Purity at Day 30 (15 wt %): 97.7%; Purity at Day 90 (15 wt %): 95.3%; Purity at Day 180 (15 wt %): 91.8%; Purity at day 0 (15 wt %): 98.8%; Purity at Day 30 (20 wt %): 97.5%; Purity at Day 90 (20 wt %): 95.1%; Purity at Day 180 (20 wt %): 91.5%; Purity at day 0 (20 wt %): 98.6%; Purity at Day 30 (30 wt %): 97.5%; Purity at Day 90 (30 wt %): 95.1%; Purity at Day 180 (30 wt %): 91.6%; Purity at day 0 (30 wt %): 98.7%; Purity at Day 30 (50 wt %): 97.7%; Purity at Day 90 (50 wt %): 95.3%; Purity at Day 180 (50 wt %): 91.8%; Purity at day 0 (50 wt %): 98.7%
